According to patent US20240277844A1:

Molecular target: anti-CD3 idiotype ScFv (CAR6) fused to the 28z-CAR-membrane-bound IL-15 construct, on cord blood-derived NK cells
Test: cell-based or functional assay

Substance: REGN1979 (bispecific antibody)
- Max Activity, CCL5 release (pg/ml), CBNK/CAR6 cells + Ramos/HiBiT: 6.9 pg/mL
- Max Activity, Cytotoxicity (%), CBNK/CAR6 cells + Ramos/HiBiT: 25.5%
- Max Activity, FasL release (pg/ml), CBNK/CAR6 cells + Ramos/HiBiT: 16.4 pg/mL
- Max Activity, Granzyme A release (pg/ml), CBNK/CAR6 cells + Ramos/HiBiT: 643 pg/mL
- Max Activity, Granzyme B release (pg/ml), CBNK/CAR6 cells + Ramos/HiBiT: 239 pg/mL
- Max Activity, IFNγ release (pg/ml), CBNK/CAR6 cells + Ramos/HiBiT: 45.6 pg/mL
- Max Activity, TNFα release (pg/ml), CBNK/CAR6 cells + Ramos/HiBiT: 11.9 pg/mL
